The record followed here is patent publication US20200079833A1 (AstraZeneca / MedImmune, published 2020).

Starred links: 1 amine or outer side, 2 acyl side, 3 side chain; linkers in the order of their positions; H or OH if unused. Non-standard residues stand in square brackets, D forms with d. Groups on a side chain read outwards from the residue. Primed or numbered codes have the meaning given here. No end group written: not given here. *: point of attachment. γGlu = O=C(O)[C@H](CCC(=O)[*:2])N[*:1]; Stearoyl = CCCCCCCCCCCCCCCCCC(=O)*; Palmitoyl = CCCCCCCCCCCCCCCC(=O)*; αMeF = C[C@](N)(Cc1ccccc1)C(=O)O; αMeK = C[C@](N)(CCCCN)C(=O)O; αMeS = C[C@](N)(CO)C(=O)O; PEG2′ = not defined here; Aib = CC(C)(N)C(=O)O

B1: SEQ ID NO 74 (peptide)
peptide: H[Aib]EGS[αMeF]TSDV[αMeS]S[αMeF]LEGEAA[αMeK]E[αMeF]IA[αMeF]K([γGlu-Palmitoyl])V[αMeK]GG-NH2
modifications: N-terminus assumed
SMILES: CCCCCCCCCCCCCCCC(=O)N[C@@H](CCC(=O)NCCCC[C@H](NC(=O)[C@](C)(Cc1ccccc1)NC(=O)[C@H](C)NC(=O)[C@@H](NC(=O)[C@](C)(Cc1ccccc1)NC(=O)[C@H](CCC(=O)O)NC(=O)[C@](C)(CCCCN)NC(=O)[C@H](C)NC(=O)[C@H](C)NC(=O)[C@H](CCC(=O)O)NC(=O)CNC(=O)[C@H](CCC(=O)O)NC(=O)[C@H](CC(C)C)NC(=O)[C@](C)(Cc1ccccc1)NC(=O)[C@H](CO)NC(=O)[C@](C)(CO)NC(=O)[C@@H](NC(=O)[C@H](CC(=O)O)NC(=O)[C@H](CO)NC(=O)[C@@H](NC(=O)[C@](C)(Cc1ccccc1)NC(=O)[C@H](CO)NC(=O)CNC(=O)[C@H](CCC(=O)O)NC(=O)C(C)(C)NC(=O)[C@@H](N)Cc1c[nH]cn1)[C@@H](C)O)C(C)C)[C@@H](C)CC)C(=O)N[C@H](C(=O)N[C@@](C)(CCCCN)C(=O)NCC(=O)NCC(N)=O)C(C)C)C(=O)O
B2: SEQ ID NO 72 (peptide)
peptide: H[Aib]EGS[αMeF]TSDV[αMeS]S[αMeF]LEGEAA[αMeK]E[αMeF]IA[αMeF]VVK([γGlu-Palmitoyl])GG-NH2
modifications: N-terminus assumed
SMILES: CCCCCCCCCCCCCCCC(=O)N[C@@H](CCC(=O)NCCCC[C@H](NC(=O)[C@@H](NC(=O)[C@@H](NC(=O)[C@](C)(Cc1ccccc1)NC(=O)[C@H](C)NC(=O)[C@@H](NC(=O)[C@](C)(Cc1ccccc1)NC(=O)[C@H](CCC(=O)O)NC(=O)[C@](C)(CCCCN)NC(=O)[C@H](C)NC(=O)[C@H](C)NC(=O)[C@H](CCC(=O)O)NC(=O)CNC(=O)[C@H](CCC(=O)O)NC(=O)[C@H](CC(C)C)NC(=O)[C@](C)(Cc1ccccc1)NC(=O)[C@H](CO)NC(=O)[C@](C)(CO)NC(=O)[C@@H](NC(=O)[C@H](CC(=O)O)NC(=O)[C@H](CO)NC(=O)[C@@H](NC(=O)[C@](C)(Cc1ccccc1)NC(=O)[C@H](CO)NC(=O)CNC(=O)[C@H](CCC(=O)O)NC(=O)C(C)(C)NC(=O)[C@@H](N)Cc1c[nH]cn1)[C@@H](C)O)C(C)C)[C@@H](C)CC)C(C)C)C(C)C)C(=O)NCC(=O)NCC(N)=O)C(=O)O
B3: SEQ ID NO 75 (peptide)
peptide: H[Aib]EGS[αMeF]TSDV[αMeS]S[αMeF]LEGEAA[αMeK]E[αMeF]IAK([γGlu-Palmitoyl])VV[αMeK]GG-NH2
modifications: N-terminus assumed
SMILES: CCCCCCCCCCCCCCCC(=O)N[C@@H](CCC(=O)NCCCC[C@H](NC(=O)[C@H](C)NC(=O)[C@@H](NC(=O)[C@](C)(Cc1ccccc1)NC(=O)[C@H](CCC(=O)O)NC(=O)[C@](C)(CCCCN)NC(=O)[C@H](C)NC(=O)[C@H](C)NC(=O)[C@H](CCC(=O)O)NC(=O)CNC(=O)[C@H](CCC(=O)O)NC(=O)[C@H](CC(C)C)NC(=O)[C@](C)(Cc1ccccc1)NC(=O)[C@H](CO)NC(=O)[C@](C)(CO)NC(=O)[C@@H](NC(=O)[C@H](CC(=O)O)NC(=O)[C@H](CO)NC(=O)[C@@H](NC(=O)[C@](C)(Cc1ccccc1)NC(=O)[C@H](CO)NC(=O)CNC(=O)[C@H](CCC(=O)O)NC(=O)C(C)(C)NC(=O)[C@@H](N)Cc1c[nH]cn1)[C@@H](C)O)C(C)C)[C@@H](C)CC)C(=O)N[C@H](C(=O)N[C@H](C(=O)N[C@@](C)(CCCCN)C(=O)NCC(=O)NCC(N)=O)C(C)C)C(C)C)C(=O)O
B4: SEQ ID NO 71 (peptide)
peptide: H[Aib]EGS[αMeF]TSDV[αMeS]S[αMeF]LEGEAA[αMeK]E[αMeF]IA[αMeF]VV[αMeK]K([γGlu-Palmitoyl])G-NH2
modifications: N-terminus assumed
SMILES: CCCCCCCCCCCCCCCC(=O)N[C@@H](CCC(=O)NCCCC[C@H](NC(=O)[C@](C)(CCCCN)NC(=O)[C@@H](NC(=O)[C@@H](NC(=O)[C@](C)(Cc1ccccc1)NC(=O)[C@H](C)NC(=O)[C@@H](NC(=O)[C@](C)(Cc1ccccc1)NC(=O)[C@H](CCC(=O)O)NC(=O)[C@](C)(CCCCN)NC(=O)[C@H](C)NC(=O)[C@H](C)NC(=O)[C@H](CCC(=O)O)NC(=O)CNC(=O)[C@H](CCC(=O)O)NC(=O)[C@H](CC(C)C)NC(=O)[C@](C)(Cc1ccccc1)NC(=O)[C@H](CO)NC(=O)[C@](C)(CO)NC(=O)[C@@H](NC(=O)[C@H](CC(=O)O)NC(=O)[C@H](CO)NC(=O)[C@@H](NC(=O)[C@](C)(Cc1ccccc1)NC(=O)[C@H](CO)NC(=O)CNC(=O)[C@H](CCC(=O)O)NC(=O)C(C)(C)NC(=O)[C@@H](N)Cc1c[nH]cn1)[C@@H](C)O)C(C)C)[C@@H](C)CC)C(C)C)C(C)C)C(=O)NCC(N)=O)C(=O)O

In the test the target is T1, GLP-1R (INS1e assay) (UniProt P32301 22-463, limits assumed).
T1 sequence (looked up): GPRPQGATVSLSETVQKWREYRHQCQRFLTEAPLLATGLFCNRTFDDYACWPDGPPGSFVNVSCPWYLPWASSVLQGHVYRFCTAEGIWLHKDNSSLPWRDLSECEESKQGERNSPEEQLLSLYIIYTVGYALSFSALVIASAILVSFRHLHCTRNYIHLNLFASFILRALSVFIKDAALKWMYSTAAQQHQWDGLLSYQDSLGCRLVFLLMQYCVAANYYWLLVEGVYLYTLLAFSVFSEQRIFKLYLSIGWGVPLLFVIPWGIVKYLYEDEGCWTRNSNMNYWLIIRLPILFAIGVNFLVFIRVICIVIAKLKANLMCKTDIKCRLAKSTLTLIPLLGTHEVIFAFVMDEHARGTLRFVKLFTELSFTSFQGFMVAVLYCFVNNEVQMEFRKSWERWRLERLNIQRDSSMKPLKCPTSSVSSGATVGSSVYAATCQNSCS
In words: cell-based or functional assay.
Regarding H[Aib]EGS[αMeF]TSDVSK([PEG2′-PEG2′-PEG2′-Stearoyl])YLEGEAAKE[αMeF]IA[αMeF]VVEGG-NH2 [SEQ ID NO 61], the “INS1e assay EC50 GLP-1 R n1” value was found to be 5.57 pM, the “INS1e assay EC50 GLP-1 R n2” value is 13.5 pM and the “INS1e assay EC50 Mean pM GLP-1R” value was determined as 10 pM.

On to H[Aib]EGS[αMeF]TSDVSK([PEG2′-PEG2′-PEG2′-Stearoyl])YLEGEAA[αMeK]E[αMeF]IA[αMeF]VVEGG-NH2 [SEQ ID NO 64], for which the “INS1e assay EC50 GLP-1 R n1” value worked out at 6.8 pM, the “INS1e assay EC50 GLP-1 R n2” value amounted to 12.1 pM and the “INS1e assay EC50 Mean pM GLP-1R” value is 9 pM.

As for H[Aib]EGS[αMeF]TSDV[αMeS]S[αMeF]LEGEAAAEFIK([PEG2′-PEG2′-γGlu-Stearoyl])WVVEGG-NH2 [SEQ ID NO 69], the “INS1e assay EC50 GLP-1 R n1” value is 19200 pM, the “INS1e assay EC50 GLP-1 R n2” value came out at 25000 pM and the “INS1e assay EC50 Mean pM GLP-1R” value was found to be 22100 pM.

For the molecule B1, the “INS1e assay EC50 GLP-1 R n1” value came out at 77.4 pM, the “INS1e assay EC50 GLP-1 R n2” value is 127 pM and the “INS1e assay EC50 Mean pM GLP-1R” value was found to be 102 pM.

H[Aib]EGS[αMeF]TSDV[αMeS]S[αMeF]LEGEAAEEFIK([PEG2′-PEG2′-γGlu-Stearoyl])WVVEGG-NH2 [SEQ ID NO 66]: the “INS1e assay EC50 GLP-1 R n1” value turned out to be 45600 pM, the “INS1e assay EC50 GLP-1 R n2” value turned out to be 38800 pM and the “INS1e assay EC50 Mean pM GLP-1R” value was found to be 42200 pM.

Consider H[Aib]EGS[αMeF]TSDV[αMeS]S[αMeF]LEGEAAKEFIK([PEG2′-PEG2′-γGlu-Stearoyl])WVVEGG-NH2 [SEQ ID NO 65], for which the “INS1e assay EC50 GLP-1 R n1” value worked out at 2570 pM, the “INS1e assay EC50 GLP-1 R n2” value was determined as 3740 pM and the “INS1e assay EC50 Mean pM GLP-1R” value was 3160 pM.

As to B2, the “INS1e assay EC50 GLP-1 R n1” value amounted to 4260 pM, the “INS1e assay EC50 GLP-1 R n2” value was 8070 pM and the “INS1e assay EC50 Mean pM GLP-1R” value was determined as 6160 pM.

Turning to B3, the “INS1e assay EC50 GLP-1 R n1” value stood at 49.7 pM, the “INS1e assay EC50 GLP-1 R n2” value came out at 63 pM and the “INS1e assay EC50 Mean pM GLP-1R” value was 56 pM.

For H[Aib]EGS[αMeF]TSDVSK([PEG2′-PEG2′-PEG2′-Stearoyl])YLEGEAAEE[αMeF]IA[αMeF]VVEGG-NH2 [SEQ ID NO 62], the “INS1e assay EC50 GLP-1 R n1” value came out at 209 pM, the “INS1e assay EC50 GLP-1 R n2” value turned out to be 83.7 pM and the “INS1e assay EC50 Mean pM GLP-1R” value was found to be 146 pM.

Consider H[Aib]EGS[αMeF]TSDV[αMeS]S[αMeF]LEGEAA[αMeK]EFIK([PEG2′-PEG2′-γGlu-Stearoyl])WVVEGG-NH2 [SEQ ID NO 68], for which the “INS1e assay EC50 GLP-1 R n1” value was found to be 2690 pM, the “INS1e assay EC50 GLP-1 R n2” value was found to be 4870 pM and the “INS1e assay EC50 Mean pM GLP-1R” value is 3780 pM.

Regarding H[Aib]EGS[αMeF]TSDVSK([PEG2′-PEG2′-γGlu-Stearoyl])YLEGEAA[αMeK]E[αMeF]IA[αMeF]VVEGG-NH2 [SEQ ID NO 60], the “INS1e assay EC50 GLP-1 R n1” value was 14300 pM, the “INS1e assay EC50 GLP-1 R n2” value is 12100 pM and the “INS1e assay EC50 Mean pM GLP-1R” value stood at 13200 pM.

As for H[Aib]EGS[αMeF]TSDVSK([PEG2′-PEG2′-PEG2′-Stearoyl])YLEGEAA[Aib]E[αMeF]IA[αMeF]VVEGG-NH2 [SEQ ID NO 63], the “INS1e assay EC50 GLP-1 R n1” value was 23.1 pM, the “INS1e assay EC50 GLP-1 R n2” value was 39.2 pM and the “INS1e assay EC50 Mean pM GLP-1R” value stood at 31 pM.

Regarding B4, the “INS1e assay EC50 GLP-1 R n1” value amounted to 604 pM, the “INS1e assay EC50 GLP-1 R n2” value stood at 841 pM and the “INS1e assay EC50 Mean pM GLP-1R” value turned out to be 723 pM.

With H[Aib]EGS[αMeF]TSDV[αMeS]S[αMeF]LEGEAA[Aib]EFIK([PEG2′-PEG2′-γGlu-Stearoyl])WVVEGG-NH2 [SEQ ID NO 67], the “INS1e assay EC50 GLP-1 R n1” value amounted to 6150 pM, the “INS1e assay EC50 GLP-1 R n2” value came to 18100 pM and the “INS1e assay EC50 Mean pM GLP-1R” value came to 12100 pM.

Regarding H[Aib]EGS[αMeF]TSDV[αMeS]S[αMeF]LEGEAAK([PEG2′-PEG2′-PEG2′-Stearoyl])E[αMeF]IA[αMeF]VVKGG-NH2 [SEQ ID NO 56], the “INS1e assay EC50 GLP-1 R n1” value amounted to 35.2 pM, the “INS1e assay EC50 GLP-1 R n2” value came to 77 pM and the “INS1e assay EC50 Mean pM GLP-1R” value was found to be 56 pM.

As for H[Aib]EGS[αMeF]TSDV[αMeS]S[αMeF]LEGEAAK([PEG2′-PEG2′-PEG2′-Stearoyl])E[αMeF]IAWVV[αMeK]GG-NH2 [SEQ ID NO 55], the “INS1e assay EC50 GLP-1 R n1” value turned out to be 12.5 pM, the “INS1e assay EC50 GLP-1 R n2” value was 10.1 pM and the “INS1e assay EC50 Mean pM GLP-1R” value came to 11 pM.
